The source of these data is article PMC3282585 (Science Signaling, 2011).

This test has as its target T1, IL17RA-SEFIR (SEFIR domain-containing fragment of human IL17RA, residues 351 to 616) (human, UniProt Q96F46 351-616).
T1 sequence (looked up): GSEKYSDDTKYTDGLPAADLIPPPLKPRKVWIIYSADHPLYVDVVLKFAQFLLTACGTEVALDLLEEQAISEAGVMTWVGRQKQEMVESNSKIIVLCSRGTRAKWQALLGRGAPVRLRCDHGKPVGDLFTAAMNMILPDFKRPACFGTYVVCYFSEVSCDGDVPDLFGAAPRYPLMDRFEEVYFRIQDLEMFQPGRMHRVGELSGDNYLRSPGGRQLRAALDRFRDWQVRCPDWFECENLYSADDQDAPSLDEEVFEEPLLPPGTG
The test is described as follows: SPR. (SPR reads the build-up and loss of mass on a sensor chip optically.)

B1: CC′ loop peptide of the Act1 SEFIR domain (peptide)
peptide: LDEDEHGLHTKY
On to B1, for which the binding result was “binds”.
